Assay results published in paper PMC3788737, “Structural Insights into Neutrophilic Migration Revealed by the Crystal Structure of the Chemokine Receptor CXCR2 in Complex with the First PDZ Domain of NHERF1” (PLoS ONE, 2013).
One block for each binder: values may come before it.

What was measured:
[1] = target: T1, NHERF1 PDZ1 domain (residues 11-94) (human, UniProt O14745 11-94); assay: crystal structure; chimeric PDZ1(11-94)-TSTTL, hanging drop, 100 mM sodium acetate pH 4.6, 2.7 M sodium chloride, 20 °C; 1.16 Å; the tail of one molecule binds the neighbouring PDZ1; settings: both partners purified
T1 construct: Na+/H+ exchanger regulatory factor-1 (NHERF1), human, PDZ1 domain, residues 11-94; The PDZ1 part of the chimera m1, written on its own for the pair PDZ1 and CXCR2 peptide of the crystal structure; also called first PDZ domain of NHERF1; source: E. coli BL21 Codon Plus (DE3), purified, as part of the chimeric protein PDZ1-TSTTL; not shown: His6, N-terminal, cleaved; SUMO, N-terminal, cleaved
T1 sequence (looked up): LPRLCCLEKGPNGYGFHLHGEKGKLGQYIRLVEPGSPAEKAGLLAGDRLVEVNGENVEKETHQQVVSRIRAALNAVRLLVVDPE

[2] = target: the molecule itself; assay: as above

binding result [1]: binds
B1: CXCR2 C-terminal peptide TSTTL (residues 356-360) (peptide)
peptide: TSTTL
notes: Interleukin 8 receptor, beta (CXCR2), human, residues 356-360 (C-terminus); The CXCR2 part of the chimera m1 (joined to residue 94 of PDZ1), written on its own for the pair of the crystal structure; also called CXCR2 pentapeptide; source: E. coli BL21 Codon Plus (DE3), purified, as the C-terminal extension of the chimeric protein PDZ1-TSTTL

B2: chimeric protein of the NHERF1 PDZ1 domain (residues 11-94) fused at its C-terminus to the CXCR2 residues 356-360 (TSTTL) (other, human)
chain: LPRLCCLEKGPNGYGFHLHGEKGKLGQYIRLVEPGSPAEKAGLLAGDRLVEVNGENVEKETHQQVVSRIRAALNAVRLLVVDPETSTTL
notes: Na+/H+ exchanger regulatory factor-1 (NHERF1), human, PDZ1 domain, residues 11-94; C-terminal extension that corresponds to residues 356-360 of human CXCR2; one molecule in the asymmetric unit; also called PDZ1-CXCR2; not shown: His6, N-terminal, cleaved; SUMO, N-terminal, cleaved
binding result [2]: binds
